{"source": "paper PMC5266483", "origin": "cited, not measured here", "biological_target": "Lys14 (position 14, …)", "experiment": "NMR", "settings": "37 °C; Transmembrane helix in DOPC", "data": [{"protein": "GGALWLALALALAKALALWLAGA", "note": "[GWALP23-K14 (synthetic construct; L14K)]", "values": [{"measurement": "pKa", "result": 6.5}]}]}
